Target: pre-formed CPX-SNARE complex (Complexin 1 with Syntaxin1A, SNAP25B and VAMP2) (human | rat | mouse) (UniProt O14810)
Sequence (O14810 whole entry, chain 1 of 4): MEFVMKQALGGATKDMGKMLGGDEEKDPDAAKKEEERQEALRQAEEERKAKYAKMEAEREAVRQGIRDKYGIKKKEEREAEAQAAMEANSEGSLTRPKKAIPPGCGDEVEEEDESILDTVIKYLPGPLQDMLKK
Sequence (P32851 whole entry, chain 2 of 4, further chain): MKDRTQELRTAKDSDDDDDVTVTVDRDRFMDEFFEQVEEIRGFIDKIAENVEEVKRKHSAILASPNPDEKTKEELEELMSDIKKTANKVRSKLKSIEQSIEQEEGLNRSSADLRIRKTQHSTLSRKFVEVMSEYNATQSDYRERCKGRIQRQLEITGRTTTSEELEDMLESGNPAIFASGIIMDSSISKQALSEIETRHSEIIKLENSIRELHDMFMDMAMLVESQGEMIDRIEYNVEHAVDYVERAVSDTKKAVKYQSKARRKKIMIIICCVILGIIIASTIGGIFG
Sequence (P60879 whole entry, chain 3 of 4, further chain): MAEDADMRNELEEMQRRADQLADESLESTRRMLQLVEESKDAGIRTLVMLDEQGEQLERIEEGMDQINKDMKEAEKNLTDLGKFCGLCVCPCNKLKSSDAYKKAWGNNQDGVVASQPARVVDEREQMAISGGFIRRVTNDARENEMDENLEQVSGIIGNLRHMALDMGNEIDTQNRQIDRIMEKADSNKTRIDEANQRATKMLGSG
Sequence (P63027 whole entry, chain 4 of 4, further chain): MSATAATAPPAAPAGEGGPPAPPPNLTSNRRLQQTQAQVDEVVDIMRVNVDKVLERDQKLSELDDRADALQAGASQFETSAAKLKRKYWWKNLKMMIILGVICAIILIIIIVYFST

## Syt7^DA (SUMO-Syt1^TMD-Syt7 with D225A, D227A, D233A, D357A, D359A) (from UniProt Q62747 17-403)
  reduction in Ca2+ (100 μM)-evoked fusion of Syt1^WT/VAMP2 vesicles with Syt7^DA in the t-SNARE bilayer, 1:800 to 1:200 protein-to-lipid (~30% to ~70%): 70%
